T1: GST-ZNF410 ZF1-ZF5 (Homo sapiens, UniProt Q86VK4 217-366)
T1 sequence: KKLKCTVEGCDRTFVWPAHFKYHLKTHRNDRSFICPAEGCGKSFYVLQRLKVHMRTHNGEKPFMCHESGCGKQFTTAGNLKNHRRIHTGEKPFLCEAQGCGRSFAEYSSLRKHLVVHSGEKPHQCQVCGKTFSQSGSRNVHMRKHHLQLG

B1: 17-bp consensus oligo (FAM) (dsDNA)
DNA 1: CACATCCCATAATAATG
DNA 2: CATTATTATGGGATGTG
B2: negative control oligo (FAM) (dsDNA)
DNA 1: TCCACTGCCAGGACCTTT
DNA 2: AAAAGGTCCTGGCAGTGG

How the values were obtained:
[1] = target: T1, GST-ZNF410 ZF1-ZF5; assay: fluorescence polarization
[2] = target: T1, GST-ZNF410 ZF1-ZF5; assay: fluorescence polarization; remark: listed apart in the source

Binder | Kd [1] | binding result [2]
B1 | 22 nM | 
B2 |  | no binding
